The target of one assay is T1, M7.
T1 sequence (single chain): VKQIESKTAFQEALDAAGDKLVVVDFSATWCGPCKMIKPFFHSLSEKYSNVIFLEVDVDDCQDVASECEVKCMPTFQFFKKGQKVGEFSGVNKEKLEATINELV
Description: ELISA, mutant M7 coated at 2 ug/mL, antibody concentration not given, anti-mouse Fc-HRP (Example 16).

Assay [1] has as its target T2, Peptide_044 (human).
T2 sequence (peptide): FSATWCGPCKMIKPF
Description: peptide microarray, head 0.08 ug (text 0.008 ug/mL).

In assay [2] the target is T3, Peptide_097 (human).
T3 sequence (peptide): FKKGQKVGEFSGANK
The assay is described as above.

In assay [3] the target is T4, Peptide_096 (human).
T4 sequence (peptide): FFKKGQKVGEFSGAN
The assay is described as above.

The next assay concerns the target TRX-N-His-M4 (human) (UniProt P10599). Description: ELISA, mutant M4 coated at 2 ug/mL, antibody concentration not given, anti-mouse Fc-HRP (Example 16).
The target of assay [4] is T2, Peptide_044 (human). Description: peptide microarray, 0.2 ug/mL.
The target of assay [5] is T3, Peptide_097 (human). Description: peptide microarray, 0.2 ug/mL.
Assay [6] concerns the target T4, Peptide_096 (human). The assay can be described thus: peptide microarray, 0.2 ug/mL.
The target in another assay is TRX-N-His-M2 (human) (UniProt P10599). The assay can be described thus: ELISA, mutant M2 coated at 2 ug/mL, antibody concentration not given, anti-mouse Fc-HRP (Example 16). (An ELISA detects its analyte on a solid surface through an enzyme-linked reagent.)
TRX-N-His-M2 (human), sequence (P10599 whole entry): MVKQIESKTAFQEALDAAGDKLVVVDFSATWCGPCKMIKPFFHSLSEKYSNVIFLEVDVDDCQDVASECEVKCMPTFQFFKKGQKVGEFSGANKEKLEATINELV
In assay [7] the target is T2, Peptide_044 (human). The assay can be described thus: peptide microarray, 1 ug/mL.
For assay [8], the target named is T3, Peptide_097 (human). The assay can be described thus: peptide microarray, 1 ug/mL.
Assay [9] deals with T4, Peptide_096 (human). The assay can be described thus: peptide microarray, 1 ug/mL.
The target in the next assay is TRX-N-His-M1 (human) (UniProt P10599). Description: ELISA, mutant M1 coated at 2 ug/mL, antibody concentration not given, anti-mouse Fc-HRP (Example 16).
TRX-N-His-M1 (human), sequence (P10599 whole entry): as above
Assay [10] concerns the target T2, Peptide_044 (human). The assay can be described thus: peptide microarray, 0.0016 ug/mL.
The target in assay [11] is T3, Peptide_097 (human). Description: peptide microarray, 0.0016 ug/mL.
The target of assay [12] is T4, Peptide_096 (human). Description: peptide microarray, 0.0016 ug/mL.
The target of assay [13] is T2, Peptide_044 (human). The assay can be described thus: peptide microarray, 0.04 ug/mL.
The target of assay [14] is T3, Peptide_097 (human). Description: peptide microarray, 0.04 ug/mL.
The target in assay [15] is T4, Peptide_096 (human). Description: peptide microarray, 0.04 ug/mL.
Assay [16] concerns the target T2, Peptide_044 (human). The assay can be described thus: peptide microarray, 5 ug/mL.
Assay [17] deals with T3, Peptide_097 (human). Description: peptide microarray, 5 ug/mL.
For assay [18], the target named is T4, Peptide_096 (human). Description: peptide microarray, 5 ug/mL.

TRX-N-His-M4 (human), sequence (P10599 whole entry): as above

B1: monoclonal antibody B264 (antibody, mouse IgG1, kappa, V domains shown)
VH: QVQLQQSGAELARPGASVKMSCKASGYTFTSYTMHWVKQRPGQGLEWIGYINPTSDYTNYNQKFKDKATLTADKSSSTAYMQLSSLTSEDSAVYFCASEGGFLYYFDYWGQGTTLTVSS
VL: DVLMTQTPLSLPVSLGDQASISCRSSQSIVHSNGNTYLEWYLQKPGQSPKLLIYKVSNRFSGVPDRFSGSGSGTDFTLKISRVEAEDLGVYYCFQGSHVPYTFGGGTKLEIKR
For B1, the OD 490 nm in the assay with M7 is 0.761; with TRX-N-His-M4 (human), 0.181; with TRX-N-His-M2 (human), 0.094; with TRX-N-His-M1 (human) it was 0.0424. The signal (blank-control = 1) with Peptide_044 (human) [1] was found to be 1.87; with Peptide_097 (human) [2] it was 1.08; with Peptide_096 (human) [3], 0.94; with Peptide_044 (human) [4] it was 2.3; with Peptide_097 (human) [5] it was 1.68; with Peptide_096 (human) [6] it was 1.37. The signal (blank-control = 1) in the assay with Peptide_044 (human) [7] stood at 2.93; in the assay with Peptide_097 (human) [8], 2.18; with Peptide_096 (human) [9], 2.04; with Peptide_044 (human) [10], 1.6; in the assay with Peptide_097 (human) [11], 0.91; in the assay with Peptide_096 (human) [12] it was 0.82. Further, the signal (blank-control = 1) was found to be 2.12 with Peptide_044 (human) [13]; 1.31 with Peptide_097 (human) [14]; 1.44 with Peptide_096 (human) [15]; 3.33 with Peptide_044 (human) [16]; 2.26 with Peptide_097 (human) [17]; 1.9 in the assay with Peptide_096 (human) [18].
